± gives the standard deviation of the averaged measurements.
Test system: Saccharomyces cerevisiae
Test: protein stability index of tFT-peptide fusion (C-terminal peptide) (PSI (0-1 scale)); higher = more stable (slower turnover)
Settings: genetic background: wild type; temperature: 30 C
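Note: PSI is a weighted mean of sequencing reads over stability bins, variants kept only with over 10 reads, mCherry proximal and sfGFP distal, peptide attached via GGGS linker.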

First: NESSASKEKSNI
Second: NFQLIKKHSKNN
The protein stability index of the first is higher: 0.69 ± 0.038 for the first, 0.63552 ± 0.00029 for the second.

NGGCCLVFRIEP and NGQSELHDHYME are within error of each other in protein stability index: 0.643 ± 0.029 for the first, 0.651 ± 0.013 for the second.

NGSSFSRTVRFM and NGVGGMHGINIM are within error of each other in protein stability index: 0.624 ± 0.038 for the first, 0.696 ± 0.076 for the second.

NHFQYHSPVASE and NHLANHAGCQKT are within error of each other in protein stability index: 0.688 ± 0.028 for the first, 0.667 ± 0.028 for the second.

NHSTGLYAARLR and NHVAPNSPSPQD are within error of each other in protein stability index: 0.725 ± 0.041 for the first, 0.731 ± 0.027 for the second.

NIIQTYITLNEL and NIMNKIFQKQKE are within error of each other in protein stability index: 0.74 ± 0.12 for the first, 0.642 ± 0.092 for the second.

NIPAAGCPRATA and NKEPKRKHKNNK are within error of each other in protein stability index: 0.711 ± 0.033 for the first, 0.675 ± 0.017 for the second.

Compared with NKIKTSRKKNNQ, NKILIKKEQEEI is lower in protein stability index: 0.723 ± 0.017 for the first, 0.64356 ± 0.00045 for the second.

NKKKKTAIPPKR and NKKKPKRTGKTQ are within error of each other in protein stability index: 0.672 ± 0.021 for the first, 0.674 ± 0.025 for the second.

NKKKREYKGMNF and NKKVRSKRKEMN are within error of each other in protein stability index: 0.686 ± 0.044 for the first, 0.637 ± 0.093 for the second.

NKLKEKNEKYKV and NKNKDNNEIVKK are within error of each other in protein stability index: 0.659 ± 0.025 for the first, 0.677 ± 0.068 for the second.

Going from NKNVGLKKSEKS to NKQNKKKKTNKK, the protein stability index falls from 0.711 ± 0.019 to 0.6792 ± 0.0036.

NKQTKTQPTKKE and NKYTKSKKNNKE are within error of each other in protein stability index: 0.725 ± 0.015 for the first, 0.761 ± 0.14 for the second.

First: NLKCRMSLKTLG
Second: NMCHVYTIIPSK
The protein stability index of the first is higher: 0.705 ± 0.0018 for the first, 0.632 ± 0.024 for the second.

Compared with NMPIGVRLLLGR, NNMNRKKGKKKT is higher in protein stability index: 0.652 ± 0.011 for the first, 0.7027 ± 0.0018 for the second.

NNRKKKGRRRQE and NPAVASPPPSSS are within error of each other in protein stability index: 0.674 ± 0.042 for the first, 0.737 ± 0.036 for the second.

NPHLTLPVHPPH and NPHRRPPRAPWP are within error of each other in protein stability index: 0.709 ± 0.026 for the first, 0.689 ± 0.039 for the second.

NRDGWWVSNGCR and NRGYRKDDKGMR are within error of each other in protein stability index: 0.796 ± 0.07 for the first, 0.689 ± 0.042 for the second.

NRHQVSKTEIKL and NRMLRAQRKNRT are within error of each other in protein stability index: 0.72 ± 0.016 for the first, 0.689 ± 0.033 for the second.

First: NRNVLKTRKKST
Second: NSDEYKVYGEKL
The protein stability index of the first is lower: 0.593 ± 0.018 for the first, 0.661 ± 0.015 for the second.

NSEKKKKRKEKK and NSKTKNCYKTGS are within error of each other in protein stability index: 0.731 ± 0.024 for the first, 0.705 ± 0.061 for the second.

First: NSPPPPRLRSSL
Second: NSQAIKSTARQK
The protein stability index of the first is lower: 0.6937 ± 0.0018 for the first, 0.707 ± 0.00054 for the second.

Going from NSRLLPWRHELR to NSWCRFLRRCLV, the protein stability index falls from 0.784 ± 0.1 to 0.609 ± 0.074.

NSWGRRAGMRGG and NTIPRVTPDKSQ are within error of each other in protein stability index: 0.731 ± 0.1 for the first, 0.642 ± 0.093 for the second.

NTLTSCRPVASK and NTQSRNKSYTER are within error of each other in protein stability index: 0.704 ± 0.037 for the first, 0.671 ± 0.0091 for the second.

NTRGRGQCCQGN and NTSLLMAWPIPP are within error of each other in protein stability index: 0.576 ± 0.053 for the first, 0.556 ± 0.032 for the second.

NVCSSFLAELVN and NVEFVVERIREK are within error of each other in protein stability index: 0.6051 ± 0.0029 for the first, 0.6 ± 0.027 for the second.

NVNMGSRGQFNF and NVRVLKCLWGVG are within error of each other in protein stability index: 0.628 ± 0.026 for the first, 0.619 ± 0.029 for the second.

Compared with NVTCRPDKNELT, NYDTIYGLHLYT is higher in protein stability index: 0.643 ± 0.035 for the first, 0.73 ± 0.015 for the second.

First: NYSINQKNRKKN
Second: PAAPGLDLRHDP
The protein stability index of the first is higher: 0.737 ± 0.013 for the first, 0.623 ± 0.037 for the second.

First: PAFGCTSRPFPG
Second: PAGILMQDSRRA
The protein stability index of the first is higher: 0.711 ± 0.031 for the first, 0.589 ± 0.051 for the second.

PAPLSPTHPPLP and PAPPAALPPPHP are within error of each other in protein stability index: 0.71 ± 0.053 for the first, 0.637 ± 0.077 for the second.

First: PAPPHPPFPLLP
Second: PAPPLRVAPSRI
The protein stability index of the first is higher: 0.705 ± 0.018 for the first, 0.67 ± 0.014 for the second.

Compared with PAPPPLLPPPPP, PAPPPLPSSSPP is higher in protein stability index: 0.597 ± 0.016 for the first, 0.696 ± 0.0019 for the second.

PAPPPPLPLHPR and PAPPPPRRPLPP are within error of each other in protein stability index: 0.664 ± 0.046 for the first, 0.657 ± 0.0086 for the second.

PAPPPRPLPSPP and PAPPPSPRILLL are within error of each other in protein stability index: 0.713 ± 0.2 for the first, 0.542 ± 0.042 for the second.

Compared with PAPPRYPLSSSS, PAPRPPSPLSAP is higher in protein stability index: 0.633 ± 0.011 for the first, 0.687 ± 0.039 for the second.

Compared with PAPSYHPVSPTA, PAPTRPSPPPLP is lower in protein stability index: 0.713 ± 0.0096 for the first, 0.641 ± 0.013 for the second.

PASPPSPLLLSL and PAVFPSLENVAL are within error of each other in protein stability index: 0.74 ± 0.066 for the first, 0.732 ± 0.046 for the second.

Compared with PCINGSASRRSG, PCLASHTVDSLP is higher in protein stability index: 0.6189 ± 0.0058 for the first, 0.665 ± 0.013 for the second.

PCLLTNLPILPT gave a protein stability index of 0.626 ± 0.077.

Source: the supplement of paper PMC10724198
